Target: Angiotensin converting enzyme (ACE)
Assay: cell-based or functional assay

| Substance | IC50 (µg/ml), in vitro ACE inhibitory activity |
| --- | --- |
| Ovotransferrin hydrolysate (thermolysin then pepsin) of ovotransferrin treated by sonication prior to hydrolysis | 9.2 µg/mL |
| Ovotransferrin hydrolysate (thermolysin then pepsin) of ovotransferrin treated with beta-mercaptoethanol prior to hydrolysis | 45.6 µg/mL |
| Ovotransferrin hydrolysate (thermolysin then pepsin) of ovotransferrin treated with dithiothreitol prior to hydrolysis | 10.7 µg/mL |
| Ovotransferrin hydrolysate prepared by pepsin, without reducing agent treatment | 320 µg/mL |
| Ovotransferrin hydrolysate prepared by thermolysin and pepsin in combination, without sonication or reducing agent treatment | 198 µg/mL |
| Ovotransferrin hydrolysate prepared by thermolysin, without reducing agent treatment | 215 µg/mL |
